B1: FBXO3 (parent)
chain: AGGFQQRQGLKYCLPLTFCIHTGL
B2: C10orf62 (parent)
chain: GHSHHSHHGHPSHQSHSLPNRRH

Variants of: B1
Assay: protein stability index of a GFP-peptide fusion (GPS, HEK-293T) (PSI 1-6); higher = more stable
Conditions: c terminus: a fixed tail appended
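Note: lentivirally expressed fusions sorted by FACS into six bins by GFP to DsRed ratio, PSI derived from sequencing read proportions per bin multiplied by bin number.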

Variant | protein stability index
AGGFQMRQGLKYCLPLTFCIHTGL | 2.1
AGGFQWRQGLKYCLPLTFCIHTGL | 3.85
AGGFQLRQGLKYCLPLTFCIHTGL | 3.23
AGGFQNRQGLKYCLPLTFCIHTGL | 3.27
AGGFQGRQGLKYCLPLTFCIHTGL | 2.7
AGGFQVRQGLKYCLPLTFCIHTGL | 2.68
AGGFQPRQGLKYCLPLTFCIHTGL | 3.26
AGGFQCRQGLKYCLPLTFCIHTGL | 2.8
AGGFQERQGLKYCLPLTFCIHTGL | 3.6
AGGFQTRQGLKYCLPLTFCIHTGL | 2.67
AGGFQDRQGLKYCLPLTFCIHTGL | 1.89
AGGFQKRQGLKYCLPLTFCIHTGL | 3.51
AGGFQYRQGLKYCLPLTFCIHTGL | 2.09
AGGFQRRQGLKYCLPLTFCIHTGL | 2.77
AGGFQSRQGLKYCLPLTFCIHTGL | 2.81
AGGFQHRQGLKYCLPLTFCIHTGL | 3.73
AGGFQARQGLKYCLPLTFCIHTGL | 2.26
AGGFQIRQGLKYCLPLTFCIHTGL | 3.58
AGGYQQRQGLKYCLPLTFCIHTGL | 2.42
AGGRQQRQGLKYCLPLTFCIHTGL | 2.36
AGGAQQRQGLKYCLPLTFCIHTGL | 3.49
AGGPQQRQGLKYCLPLTFCIHTGL | 2.09
AGGEQQRQGLKYCLPLTFCIHTGL | 3.03

Variant | protein stability index
AGGMQQRQGLKYCLPLTFCIHTGL | 2.69
AGGSQQRQGLKYCLPLTFCIHTGL | 2.38
AGGCQQRQGLKYCLPLTFCIHTGL | 2.66
AGGTQQRQGLKYCLPLTFCIHTGL | 2.82
AGGQQQRQGLKYCLPLTFCIHTGL | 2.37
AGGIQQRQGLKYCLPLTFCIHTGL | 3.07
AGGDQQRQGLKYCLPLTFCIHTGL | 1.87
AGGHQQRQGLKYCLPLTFCIHTGL | 2.54
AGGFQQRQGLVYCLPLTFCIHTGL | 3.35
AGGFQQRQGLGYCLPLTFCIHTGL | 3.61
AGGFQQRQGLNYCLPLTFCIHTGL | 1.99
AGGFQQRQGLEYCLPLTFCIHTGL | 2.8
AGGFQQRQGLRYCLPLTFCIHTGL | 2.03
AGGFQQRQGLYYCLPLTFCIHTGL | 2.43
AGGFQQRQGLFYCLPLTFCIHTGL | 3.02
AGGFQQRQGLWYCLPLTFCIHTGL | 4.04
AGGFQQRQGLMYCLPLTFCIHTGL | 1.96
AGGFQQRQGLDYCLPLTFCIHTGL | 3.52
AGGFQQRQGLCYCLPLTFCIHTGL | 2.12
AGGFQQRQGLAYCLPLTFCIHTGL | 2.43
AGGFQQRQGLSYCLPLTFCIHTGL | 2.74
AGGFQQRQGLTYCLPLTFCIHTGL | 2.45
AGGFQQRQGLLYCLPLTFCIHTGL | 2.21

Variant | protein stability index
AGGFQQRQGLHYCLPLTFCIHTGL | 2.35
AGGFQQRQGLQYCLPLTFCIHTGL | 2.75
AGGFQQRQGLIYCLPLTFCIHTGL | 3.42
AGGFDQRQGLKYCLPLTFCIHTGL | 2.34
AGGFHQRQGLKYCLPLTFCIHTGL | 1.87
AGGFAQRQGLKYCLPLTFCIHTGL | 3.05
AGGFCQRQGLKYCLPLTFCIHTGL | 3.02
AGGFYQRQGLKYCLPLTFCIHTGL | 3.66
AGGFTQRQGLKYCLPLTFCIHTGL | 2
AGGFGQRQGLKYCLPLTFCIHTGL | 3.92
AGGFSQRQGLKYCLPLTFCIHTGL | 3.59
AGGFMQRQGLKYCLPLTFCIHTGL | 2.17
AGGFWQRQGLKYCLPLTFCIHTGL | 3.08
AGGFLQRQGLKYCLPLTFCIHTGL | 2.32
AGGFPQRQGLKYCLPLTFCIHTGL | 1.71
AGGFFQRQGLKYCLPLTFCIHTGL | 1.98
AGGFRQRQGLKYCLPLTFCIHTGL | 2.27
AGGFVQRQGLKYCLPLTFCIHTGL | 2.33
AGGFKQRQGLKYCLPLTFCIHTGL | 2.88
AGGFNQRQGLKYCLPLTFCIHTGL | 2.77
AGGFIQRQGLKYCLPLTFCIHTGL | 2.17
AGTFQQRQGLKYCLPLTFCIHTGL | 3.31
AGEFQQRQGLKYCLPLTFCIHTGL | 1.99

Variant | protein stability index
AGSFQQRQGLKYCLPLTFCIHTGL | 2.44
AGLFQQRQGLKYCLPLTFCIHTGL | 3.11
AGPFQQRQGLKYCLPLTFCIHTGL | 1.51
AGVFQQRQGLKYCLPLTFCIHTGL | 2.54
AGNFQQRQGLKYCLPLTFCIHTGL | 3.27
AGKFQQRQGLKYCLPLTFCIHTGL | 2.51
AGFFQQRQGLKYCLPLTFCIHTGL | 3.02
AGYFQQRQGLKYCLPLTFCIHTGL | 3.02
AGAFQQRQGLKYCLPLTFCIHTGL | 1.48
AGQFQQRQGLKYCLPLTFCIHTGL | 4.36
AGRFQQRQGLKYCLPLTFCIHTGL | 3.24
AGDFQQRQGLKYCLPLTFCIHTGL | 3.1
AGCFQQRQGLKYCLPLTFCIHTGL | 2.66
AGMFQQRQGLKYCLPLTFCIHTGL | 2.47
AGGFQQRQMLKYCLPLTFCIHTGL | 3.48
AGGFQQRQHLKYCLPLTFCIHTGL | 2.94
AGGFQQRQLLKYCLPLTFCIHTGL | 3.97
AGGFQQRQQLKYCLPLTFCIHTGL | 2.5
AGGFQQRQELKYCLPLTFCIHTGL | 1.87
AGGFQQRQYLKYCLPLTFCIHTGL | 3.4
AGGFQQRQKLKYCLPLTFCIHTGL | 2.74
AGGFQQRQDLKYCLPLTFCIHTGL | 2.68
AGGFQQRQCLKYCLPLTFCIHTGL | 2.68

Variant | protein stability index
AGGFQQRQNLKYCLPLTFCIHTGL | 2.28
AGGFQQRQVLKYCLPLTFCIHTGL | 2.39
AGGFQQRQFLKYCLPLTFCIHTGL | 2.58
AGGFQQRQTLKYCLPLTFCIHTGL | 3.85
AGGFQQRQILKYCLPLTFCIHTGL | 2.28
AGGFQQRQRLKYCLPLTFCIHTGL | 1.48
AGGFQQRQSLKYCLPLTFCIHTGL | 3.54
AGGFQQRMGLKYCLPLTFCIHTGL | 2.24
AGGFQQRVGLKYCLPLTFCIHTGL | 2.22
AGGFQQRWGLKYCLPLTFCIHTGL | 2.88
AGGFQQRLGLKYCLPLTFCIHTGL | 2.56
AGGFQQRDGLKYCLPLTFCIHTGL | 1.88
AGGFQQRHGLKYCLPLTFCIHTGL | 2.66
AGGFQQRRGLKYCLPLTFCIHTGL | 2.99
AGGFQQRKGLKYCLPLTFCIHTGL | 3.23
AGGFQQRYGLKYCLPLTFCIHTGL | 2.17
AGGFQQRGGLKYCLPLTFCIHTGL | 3.4
AGGFQQRAGLKYCLPLTFCIHTGL | 2.82
AGGFQQRTGLKYCLPLTFCIHTGL | 3.56
AGGFQQRFGLKYCLPLTFCIHTGL | 2.59
AGGFQQRCGLKYCLPLTFCIHTGL | 3.53
AGGFQQRIGLKYCLPLTFCIHTGL | 2.51
NGGFQQRQGLKYCLPLTFCIHTGL | 2.47

Variant | protein stability index
DGGFQQRQGLKYCLPLTFCIHTGL | 2.89
WGGFQQRQGLKYCLPLTFCIHTGL | 5.07
LGGFQQRQGLKYCLPLTFCIHTGL | 2.46
TGGFQQRQGLKYCLPLTFCIHTGL | 3.47
HGGFQQRQGLKYCLPLTFCIHTGL | 3.55
FGGFQQRQGLKYCLPLTFCIHTGL | 3.41
QGGFQQRQGLKYCLPLTFCIHTGL | 2.55
KGGFQQRQGLKYCLPLTFCIHTGL | 1.87
SGGFQQRQGLKYCLPLTFCIHTGL | 2.65
VGGFQQRQGLKYCLPLTFCIHTGL | 2.89
EGGFQQRQGLKYCLPLTFCIHTGL | 2.57
CGGFQQRQGLKYCLPLTFCIHTGL | 2.76
IGGFQQRQGLKYCLPLTFCIHTGL | 2
YGGFQQRQGLKYCLPLTFCIHTGL | 3.08
MGGFQQRQGLKYCLPLTFCIHTGL | 3.13
PGGFQQRQGLKYCLPLTFCIHTGL | 2.91
GGGFQQRQGLKYCLPLTFCIHTGL | 3.9
RGGFQQRQGLKYCLPLTFCIHTGL | 2.39
AGGFQQRQGLKDCLPLTFCIHTGL | 2.21
AGGFQQRQGLKECLPLTFCIHTGL | 2.29
AGGFQQRQGLKGCLPLTFCIHTGL | 3.3
AGGFQQRQGLKACLPLTFCIHTGL | 3.25
AGGFQQRQGLKCCLPLTFCIHTGL | 2.32

Variant | protein stability index
AGGFQQYQGLKYCLPLTFCIHTGL | 2.27
AGGFQQVQGLKYCLPLTFCIHTGL | 3.75
AGGFQQLQGLKYCLPLTFCIHTGL | 3.44
AGGFQQDQGLKYCLPLTFCIHTGL | 2.64
AGGFQQHQGLKYCLPLTFCIHTGL | 2.74
AGGFQQCQGLKYCLPLTFCIHTGL | 2.54
AGGFQQPQGLKYCLPLTFCIHTGL | 3.24
AGGFQQFQGLKYCLPLTFCIHTGL | 3.23
AGGFQQGQGLKYCLPLTFCIHTGL | 3.16
AGGFQQTQGLKYCLPLTFCIHTGL | 2.6
AGGFQQEQGLKYCLPLTFCIHTGL | 2.83
AGGFQQNQGLKYCLPLTFCIHTGL | 2.95
AGGFQQSQGLKYCLPLTFCIHTGL | 2.33
AGGFQQIQGLKYCLPLTFCIHTGL | 2.12
ARGFQQRQGLKYCLPLTFCIHTGL | 2.59
AHGFQQRQGLKYCLPLTFCIHTGL | 4.03
ALGFQQRQGLKYCLPLTFCIHTGL | 2.79
AIGFQQRQGLKYCLPLTFCIHTGL | 4.2
AYGFQQRQGLKYCLPLTFCIHTGL | 2.4
ADGFQQRQGLKYCLPLTFCIHTGL | 1.68
ANGFQQRQGLKYCLPLTFCIHTGL | 2.94
AEGFQQRQGLKYCLPLTFCIHTGL | 2.36
ATGFQQRQGLKYCLPLTFCIHTGL | 1.88

Variant | protein stability index
APGFQQRQGLKYCLPLTFCIHTGL | 2.79
ASGFQQRQGLKYCLPLTFCIHTGL | 3.13
AKGFQQRQGLKYCLPLTFCIHTGL | 3.68
AVGFQQRQGLKYCLPLTFCIHTGL | 2.97
AFGFQQRQGLKYCLPLTFCIHTGL | 2.79
ACGFQQRQGLKYCLPLTFCIHTGL | 2.6
AGGFQQRQGWKYCLPLTFCIHTGL | 3.49
AGGFQQRQGMKYCLPLTFCIHTGL | 2.56
AGGFQQRQGAKYCLPLTFCIHTGL | 2.95
AGGFQQRQGQKYCLPLTFCIHTGL | 3.23
AGGFQQRQGPKYCLPLTFCIHTGL | 2.2
AGGFQQRQGVKYCLPLTFCIHTGL | 2.85
AGGFQQRQGHKYCLPLTFCIHTGL | 1.64
AGGFQQRQGSKYCLPLTFCIHTGL | 3.66
AGGFQQRQGCKYCLPLTFCIHTGL | 2.26
AGGFQQRQGDKYCLPLTFCIHTGL | 2.84
AGGFQQRQGTKYCLPLTFCIHTGL | 2.53
AGGFQQRQGNKYCLPLTFCIHTGL | 2.56
AGGFQQRQGYKYCLPLTFCIHTGL | 3.49
AGGFQQRQGEKYCLPLTFCIHTGL | 2.19
AGGFQQRQGFKYCLPLTFCIHTGL | 2.03
AGGFQQRQGKKYCLPLTFCIHTGL | 3.64

Variants of: B2
Assay: as above
Conditions: c terminus: native

Variant | protein stability index
GHSHHSHHGHPSHQSHSLPNRRS | 2.88
GHSHHSHHGHPSHQSHSLPNRRV | 2.35
GHSHHSHHGHPSHQSHSLPNRRW | 2.25
GHSHHSHHGHPSHQSHSLPNRRY | 3.4
GHSHHSHHGHPSHQSHSLPNRRT | 2.88
